B1: ribosomal protein uS2 of the M. smegmatis 70S ribosome (natural protein)
chain: MAVVTMKQLLDSGAHFGHQTRRWNPKMKRFIFTDRNGIYIIDLQQTLTYIDKAYEFVKETVAHGGTVLFVGTKKQAQESIAEEATRVGMPYVNQRWLGGMLTNFSTVHKRLQRLKELEAMEQTGGFEGRTKKEILMLTREKNKLERSLGGIRDMQKVPSAVWVVDTNKEHIAVGEARKLGIPVIAILDTNCDPDVVDYPIPGNDDAIRSAALLTKVIASAVAEGLQARAGQGSGEKPAEGAEPLAEWEQELLAGATAGAADASAEGAAAPESSTDAS
B2: ribosomal protein uS9 of the M. smegmatis 70S ribosome (natural protein)
chain: MTDVTETEVVTESAEPREPVIIDRPIQTVGRRKEAVVRVRLVPGTGQFNLDGRTLENYFPNKVHQQLIKAPLVTVDRVDQFDIYAHLDGGGPSGQAGALRLAIARALILVQPEDRPALKKAGFLTRDPRAIERKKYGLKKARKAPQYSKR
B3: ribosomal protein uS11 of the M. smegmatis 70S ribosome (natural protein)
chain: not shown
B4: RafH (ribosome associated factor under hypoxia), M. smegmatis MSMEG_3935 (natural protein)
chain: MDVDVSTDGELPGAAEYAREKIGRLSRRAHRPVLHARVRLTRHGDPAVERPVIAQANLDVNGRQVRAQVEGVNAREAVDRLEARLRSRLERIAEHWEARRGGVPAEAGREWRHESEPARRPGYFPRPPEERRIIRRKSFSMVPCTVDEAALEMEMLDYDFHLFTEKGTGFAAVLYKGGPTGYRLVLVIPVPADELSPFEKPITISTHPAPCLTQRDAVERLGLLGLPFLFYIDAAEGRASVIYRRYDGHYGLITPADG

How the values were obtained:
[1] = molecular target: T1, ribosomal protein bS1 of the M. smegmatis 70S ribosome (M. smegmatis (mc2155), UniProt A0QYY6 1-479); assay: cryo-EM structure
T1 sequence: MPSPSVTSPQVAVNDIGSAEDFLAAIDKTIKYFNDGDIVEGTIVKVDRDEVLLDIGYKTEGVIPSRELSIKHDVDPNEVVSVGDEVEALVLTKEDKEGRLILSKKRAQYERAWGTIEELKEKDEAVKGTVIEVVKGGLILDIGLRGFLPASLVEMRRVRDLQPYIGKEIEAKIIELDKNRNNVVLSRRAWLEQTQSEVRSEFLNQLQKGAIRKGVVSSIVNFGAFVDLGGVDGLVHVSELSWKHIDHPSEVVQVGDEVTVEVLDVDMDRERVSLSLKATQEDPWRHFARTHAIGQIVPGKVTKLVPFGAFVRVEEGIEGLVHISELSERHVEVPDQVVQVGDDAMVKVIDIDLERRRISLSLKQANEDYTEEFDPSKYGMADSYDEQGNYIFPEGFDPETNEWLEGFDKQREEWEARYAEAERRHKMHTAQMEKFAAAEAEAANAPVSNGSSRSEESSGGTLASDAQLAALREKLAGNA

[2] = molecular target: B4; assay: cryo-EM structure

Binder | binding result [1] | binding result [2]
B1 | binds | 
B2 |  | binds
B3 |  | binds
B4 | binds | 

From paper doi:10.1101/2023.04.18.537051 (bioRxiv, 2023)
